Experimental data taken from patent US20110312881A1 (AMUNIX, published 2011).

Biological target: T1, XTEN_AM875-hGH (human, UniProt P01241 27-217)
T1 construct: Negative control in the IL-1 receptor ELISA
Assay: ELISA, plate-coated mouse IL-1R/Fc
Procedure: To evaluate the activity of the IL-1ra-containing XTEN fusion proteins, an ELISA based receptor binding assay was used. Here the wells of a Costar 3690 assay plate were coated overnight with 50 ng per well of mouse IL-1 receptor fused to Fc domain of human IgG (IL-1R/Fc, R&D Systems). Subsequently the wells were blocked with 3% BSA to prevent nonspecific interactions with the solid phase. After thoroughly washing the wells, a dilution series of either IL-1ra-XTEN_AM875, XTEN_AM875-IL-1ra, or IL-1ra (anakinra) was applied to the wells. The binding reaction was allowed to proceed for 2 hr at room temperature. Unbound Il-1ra was removed by repeated washing. The bound IL-1ra ad IL-1ra-XTEn fusions were detected with a biotinylated anti-human II-1ra antibody and a horseradish peroxidase-conjugated streptavidin. […] The absorbance of each well at 450 nm and 570 nm was recorded on a SpectrMax 384Plus spectrophotometer. The corrected absorbance signal (Abscorr=Abs₄₅₀ₙₘ−Abs₅₇₀ₙₘ) was plotted as a function of IL-1ra-XTEN or IL-1ra concentration to produce a binding isotherm as shown in FIG. 17.
To estimate the binding affinity of each fusion protein for the IL-1 receptor, the binding data was fit to a sigmoidal dose-response curve. From the fit of the data an EC50 (the concentration of IL-1ra or IL-1ra-XTEN at which the signal is half maximal) for each construct was determined.

T1 sequence (P01241 other isoform, or with tags, fused parts or gaps limits assumed): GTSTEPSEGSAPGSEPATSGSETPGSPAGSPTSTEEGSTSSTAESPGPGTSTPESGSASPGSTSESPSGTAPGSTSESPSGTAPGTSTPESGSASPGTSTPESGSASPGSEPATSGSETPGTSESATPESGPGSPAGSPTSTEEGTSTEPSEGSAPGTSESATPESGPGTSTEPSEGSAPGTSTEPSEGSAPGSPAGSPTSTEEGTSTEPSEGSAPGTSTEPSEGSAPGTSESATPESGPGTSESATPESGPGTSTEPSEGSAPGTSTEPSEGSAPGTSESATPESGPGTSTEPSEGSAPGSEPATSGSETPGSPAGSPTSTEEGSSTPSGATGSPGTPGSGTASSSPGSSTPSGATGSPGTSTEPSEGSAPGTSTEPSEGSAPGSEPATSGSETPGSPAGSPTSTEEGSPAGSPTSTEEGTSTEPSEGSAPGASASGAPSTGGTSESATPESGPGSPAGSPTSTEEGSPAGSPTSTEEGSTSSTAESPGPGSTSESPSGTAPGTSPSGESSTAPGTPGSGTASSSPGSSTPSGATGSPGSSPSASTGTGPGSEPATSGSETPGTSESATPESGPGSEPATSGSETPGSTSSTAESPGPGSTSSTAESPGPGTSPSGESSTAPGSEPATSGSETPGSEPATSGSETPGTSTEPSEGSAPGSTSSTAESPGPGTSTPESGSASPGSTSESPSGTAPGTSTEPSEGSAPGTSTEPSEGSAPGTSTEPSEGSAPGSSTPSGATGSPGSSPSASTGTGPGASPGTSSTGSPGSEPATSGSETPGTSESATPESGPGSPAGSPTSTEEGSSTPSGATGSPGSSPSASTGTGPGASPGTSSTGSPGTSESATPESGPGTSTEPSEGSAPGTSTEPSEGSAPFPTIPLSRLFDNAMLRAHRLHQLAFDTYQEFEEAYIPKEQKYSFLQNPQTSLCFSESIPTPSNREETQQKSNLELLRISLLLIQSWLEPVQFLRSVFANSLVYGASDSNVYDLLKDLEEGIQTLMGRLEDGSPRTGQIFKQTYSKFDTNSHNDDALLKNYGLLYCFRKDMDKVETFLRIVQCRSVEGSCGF

B1: mouse IL-1 receptor fused to Fc domain of human IgG (IL-1R/Fc, R&D Systems) (Fc fusion, UniProt P13504 20-338, looked up)
chain: LEIDVCTEYPNQIVLFLSVNEIDIRKCPLTPNKMHGDTIIWYKNDSKTPISADRDSRIHQQNEHLWFVPAKVEDSGYYYCIVRNSTYCLKTKVTVTVLENDPGLCYSTQATFPQRLHIAGDGSLVCPYVSYFKDENNELPEVQWYKNCKPLLLDNVSFFGVKDKLLVRNVAEEHRGDYICRMSYTFRGKQYPVTRVIQFITIDENKRDRPVILSPRNETIEADPGSMIQLICNVTGQFSDLVYWKWNGSEIEWNDPFLAEDYQFVEHPSTKRKYTLITTLNISEVKSQFYRYPFICVVKNTNIFESAHVQLIYPVPDFK
notes: Bought reagent, coated on the plate at 50 ng per well; not shown: Fc domain of human IgG
binding result: no binding
